Legend:
[1] = target: T1, AlkX (Rv3249c), TetR family regulator (Mycobacterium tuberculosis) (UniProt O05892); assay: EMSA
T1 sequence: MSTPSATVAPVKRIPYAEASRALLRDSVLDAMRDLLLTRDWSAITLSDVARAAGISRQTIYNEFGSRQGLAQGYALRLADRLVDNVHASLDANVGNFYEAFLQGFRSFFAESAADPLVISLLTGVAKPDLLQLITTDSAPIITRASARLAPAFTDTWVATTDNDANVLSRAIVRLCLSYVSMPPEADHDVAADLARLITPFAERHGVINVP

[2] = target: T1, AlkX (Rv3249c), TetR family regulator (Mycobacterium tuberculosis); assay: competition

For “CGGCGATTGACTGTTCTACCGACTTCATGCGCCGTCGACCGGCCATGCACCCGTCCTCTCGCACTCGTTGTGACCGCACAGTACTGGGTACTCTGCGAGGATGACGGGTCGCGTAGGGAACCCGAAGGACCACGCCGTGGTGATCGGAGCTAGCATCGCCGGGTTGTGCGCCGCGCGGGTGCTCTCGGACTTCTACTCCA (double strand) [rv3253c promoter probe]”, the binding [1] was “no binding”.

In the case of “TCGGCAAGCTCGAGAGAGCGCGACCCGGAGGTGTTGAACTAGCTTCGCCGCGTATTTACAAATTGCGTTATATGTCTAGACATAAGACGCAAACTGCTCTATTGTCAAATCCCAACGTGGTGTGGCTCATGAGGAGGTTTGGCATATGACCACGCAAATCGGCTCTGGTGGACCCGAAG (double strand) [rv3252c (alkB) promoter probe]”, the binding [1] is reported as “binds”.

“TCGGCAAGCTCGAGAGAGCGCGACCCGGAGGTGTTGAACTAGCTTCGCCGCGTATTTACAAATTGCGTTATATGTCTAGACATAAGACGCAAACTGCTCTATTGTCAAATCCCAACGTGGTGTGGCTCATGAGGAGGTTTGGCATATGACCACGCAAATCGGCTCTGGTGGACCCGAAG (double strand) [unlabeled (cold) rv3252c (alkB) promoter probe]” was tested, and the binding [2] was “binds”.
